Values quoted from earlier work in article PMC8043720.
pKd: −log10 of the molar value.

Target: NaV1.7 (Homo sapiens) (UniProt Q15858)
UniProt Q15858, sequence (Q15858 whole entry): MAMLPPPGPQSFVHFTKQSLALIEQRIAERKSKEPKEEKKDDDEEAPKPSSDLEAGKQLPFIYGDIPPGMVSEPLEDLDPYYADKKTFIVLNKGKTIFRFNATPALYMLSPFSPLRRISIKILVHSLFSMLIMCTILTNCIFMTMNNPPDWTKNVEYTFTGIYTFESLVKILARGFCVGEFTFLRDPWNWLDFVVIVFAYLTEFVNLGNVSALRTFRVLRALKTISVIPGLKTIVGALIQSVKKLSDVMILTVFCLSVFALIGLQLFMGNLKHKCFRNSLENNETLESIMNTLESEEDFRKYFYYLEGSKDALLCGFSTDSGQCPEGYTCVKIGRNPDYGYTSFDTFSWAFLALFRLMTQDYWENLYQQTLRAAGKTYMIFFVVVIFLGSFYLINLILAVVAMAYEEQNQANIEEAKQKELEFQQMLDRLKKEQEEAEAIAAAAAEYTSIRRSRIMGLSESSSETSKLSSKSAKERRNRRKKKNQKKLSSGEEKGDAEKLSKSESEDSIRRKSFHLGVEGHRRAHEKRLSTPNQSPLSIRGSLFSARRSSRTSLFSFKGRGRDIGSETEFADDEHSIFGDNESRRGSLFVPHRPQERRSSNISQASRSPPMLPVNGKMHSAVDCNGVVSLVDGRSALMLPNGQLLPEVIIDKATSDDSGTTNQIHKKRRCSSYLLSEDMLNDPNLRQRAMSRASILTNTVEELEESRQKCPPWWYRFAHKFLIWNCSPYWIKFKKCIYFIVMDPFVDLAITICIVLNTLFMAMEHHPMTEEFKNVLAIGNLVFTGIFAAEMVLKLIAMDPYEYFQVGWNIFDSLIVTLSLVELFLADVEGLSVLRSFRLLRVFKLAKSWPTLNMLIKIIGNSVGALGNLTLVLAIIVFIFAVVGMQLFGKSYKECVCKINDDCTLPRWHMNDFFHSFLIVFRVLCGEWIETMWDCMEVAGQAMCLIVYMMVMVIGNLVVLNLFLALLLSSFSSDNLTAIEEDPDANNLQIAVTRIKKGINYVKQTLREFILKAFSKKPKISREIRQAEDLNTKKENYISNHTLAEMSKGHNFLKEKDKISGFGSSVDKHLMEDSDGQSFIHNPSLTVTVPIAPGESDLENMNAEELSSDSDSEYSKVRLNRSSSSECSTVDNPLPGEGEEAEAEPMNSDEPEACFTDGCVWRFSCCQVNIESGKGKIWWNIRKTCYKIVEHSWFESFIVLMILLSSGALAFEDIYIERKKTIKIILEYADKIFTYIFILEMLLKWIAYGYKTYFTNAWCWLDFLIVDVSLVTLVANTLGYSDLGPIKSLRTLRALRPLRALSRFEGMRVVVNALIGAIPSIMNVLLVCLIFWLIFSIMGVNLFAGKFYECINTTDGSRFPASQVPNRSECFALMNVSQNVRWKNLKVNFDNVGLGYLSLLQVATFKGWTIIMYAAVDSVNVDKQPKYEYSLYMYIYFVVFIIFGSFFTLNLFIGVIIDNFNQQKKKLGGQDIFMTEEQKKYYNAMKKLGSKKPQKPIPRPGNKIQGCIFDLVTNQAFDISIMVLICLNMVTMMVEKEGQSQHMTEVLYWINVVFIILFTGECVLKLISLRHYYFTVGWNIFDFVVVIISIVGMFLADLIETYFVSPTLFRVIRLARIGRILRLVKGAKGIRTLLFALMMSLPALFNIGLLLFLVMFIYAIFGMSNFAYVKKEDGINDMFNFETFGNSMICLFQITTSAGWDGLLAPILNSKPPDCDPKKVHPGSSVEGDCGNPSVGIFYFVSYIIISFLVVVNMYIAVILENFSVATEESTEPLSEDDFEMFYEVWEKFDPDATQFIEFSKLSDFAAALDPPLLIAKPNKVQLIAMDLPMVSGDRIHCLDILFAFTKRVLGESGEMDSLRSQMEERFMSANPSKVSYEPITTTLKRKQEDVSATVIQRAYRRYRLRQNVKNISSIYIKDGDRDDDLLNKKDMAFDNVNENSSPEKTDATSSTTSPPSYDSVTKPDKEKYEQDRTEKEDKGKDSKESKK

Substance: HwTx-IV (from UniProt P83303)
- pKd: 7.59
